Experimental data published in patent US20150344570A1 (published 2015).

T1: FcγRIIb extracellular domain with C-terminal His tag (human, UniProt P31994 43-217)
T1 construct: extracellular domain; Soluble receptor expressed in FreeStyle293 cells and used as analyte in Biacore; also called FcgRIIb; 2b; not shown: His tag attached to the C terminus
T1 sequence (looked up): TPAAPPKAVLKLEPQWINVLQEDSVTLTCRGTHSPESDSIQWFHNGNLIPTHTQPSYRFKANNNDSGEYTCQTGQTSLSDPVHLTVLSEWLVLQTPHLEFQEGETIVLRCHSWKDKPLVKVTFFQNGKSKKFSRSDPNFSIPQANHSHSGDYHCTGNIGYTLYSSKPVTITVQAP


How the values were obtained:
[1] = molecular target: T1, FcγRIIb extracellular domain with …; experiment: SPR (Biacore), antibody captured, FcγR as analyte; binding activity relative to control heterodimerized antibody
Method: (§1) The heterodimerized antibodies He Abs in which one of the H chains was introduced with an alteration were assayed for their binding activities to each activating FcγR and inhibitory FcγR according to the method described in Example 4. […] The activating FcγRs in FIGS. 26, 27, 28, and 29 are FcγRIa, FcγRIIa (R), FcγRIIa (H), and FcγRIIIa, respectively.
(§2) Analysis of interaction between objective antibody and the FcγR was carried out using Biacore T100 (GE Healthcare). HBS-EP+ (GE Healthcare) was used as the running buffer, and the measurement temperature was set to 25° C. Chips produced by immobilizing the antigen peptide by the amine coupling method to a Series S Sencor Chip CM5 (GE Healthcare), or alternatively, chips produced by allowing preliminarily biotinylated antigen peptides to interact with and immobilize onto a Series S Sensor Chip SA (certified) (GE Healthcare) were used. Antibodies of interest were captured onto an antigen peptide-immobilized chip, and allowed to interact to each FcγR diluted with running buffer. To regenerate and repeatedly use the chip, the antibodies captured on the chip were washed off by reacting 10 mM glycine-HCl, pH 1.5.

[2] = molecular target: T2, FcγRIIIa extracellular domain with C-terminal His tag (human, UniProt P08637 17-208); experiment: as above
T2 construct: extracellular domain; also called FcgRIIIa; 3a; not shown: His tag attached to the C terminus
T2 sequence (P08637 17-208): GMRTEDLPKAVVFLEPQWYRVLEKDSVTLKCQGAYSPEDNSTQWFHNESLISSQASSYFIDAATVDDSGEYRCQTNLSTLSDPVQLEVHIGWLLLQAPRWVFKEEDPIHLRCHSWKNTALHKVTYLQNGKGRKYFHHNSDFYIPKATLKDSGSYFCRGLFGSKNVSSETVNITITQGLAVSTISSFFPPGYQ
Method: as §1, §2

[3] = molecular target: T2, FcγRIIIa extracellular domain with …; experiment: SPR (Biacore); He/Con_3a divided by He/Con_2b (FcγRIIIa over FcγRIIb)
Method: as §1, §2

Binder	He/Con_2b [1]	He/Con_3a [2]	He_3a/2b [3]
GpH7-A5/GpH7-B3 variant D270_07I/GpL16-k0 (antibody, human IgG1, kappa, Heterodimerized anti-glypican-3 IgG1 with the alteration in only one H chain; also called He Ab) heavy 1: not shown heavy 2: not shown light: DIVMTQSPLSLPVTPGEPASISCQASESLVHSNRNTYLHWYLQKPGQSPQLLIYKVSNRFSGVPDRFSGSGSGTDFTLKISRVEAEDVGVYYCSQNTHVPPTFGQGTKVEIERTVAAPSVFIFPPSDEQLKSGTASVVCLLNNFYPREAKVQWKVDNALQSGNSQESVTEQDSKDSTYSLSSTLTLSKADYEKHKVYACEVTHQGLSSPVTKSFNRGEC	41.5 % of GpH7-A5/GpH7-B3/GpL16-k0 (=100)	69.6 % of GpH7-A5/GpH7-B3/GpL16-k0 (=100)	1.68 ratio
GpH7-A5/GpH7-B3 variant D270_18N/GpL16-k0 (antibody, human IgG1, kappa, Heterodimerized anti-glypican-3 IgG1 with the alteration in only one H chain; also called He Ab) heavy 1: not shown heavy 2: not shown light: DIVMTQSPLSLPVTPGEPASISCQASESLVHSNRNTYLHWYLQKPGQSPQLLIYKVSNRFSGVPDRFSGSGSGTDFTLKISRVEAEDVGVYYCSQNTHVPPTFGQGTKVEIERTVAAPSVFIFPPSDEQLKSGTASVVCLLNNFYPREAKVQWKVDNALQSGNSQESVTEQDSKDSTYSLSSTLTLSKADYEKHKVYACEVTHQGLSSPVTKSFNRGEC	40.3 % of GpH7-A5/GpH7-B3/GpL16-k0 (=100)	56.5 % of GpH7-A5/GpH7-B3/GpL16-k0 (=100)	1.4 ratio
GpH7-A5/GpH7-B3 variant D270_10E/GpL16-k0 (antibody, human IgG1, kappa, Heterodimerized anti-glypican-3 IgG1 with the alteration in only one H chain; also called He Ab) heavy 1: not shown heavy 2: not shown light: DIVMTQSPLSLPVTPGEPASISCQASESLVHSNRNTYLHWYLQKPGQSPQLLIYKVSNRFSGVPDRFSGSGSGTDFTLKISRVEAEDVGVYYCSQNTHVPPTFGQGTKVEIERTVAAPSVFIFPPSDEQLKSGTASVVCLLNNFYPREAKVQWKVDNALQSGNSQESVTEQDSKDSTYSLSSTLTLSKADYEKHKVYACEVTHQGLSSPVTKSFNRGEC	76.5 % of GpH7-A5/GpH7-B3/GpL16-k0 (=100)	123 % of GpH7-A5/GpH7-B3/GpL16-k0 (=100)	1.61 ratio
GpH7-A5/GpH7-B3 variant D270_08L/GpL16-k0 (antibody, human IgG1, kappa, Heterodimerized anti-glypican-3 IgG1 with the alteration in only one H chain; also called He Ab) heavy 1: not shown heavy 2: not shown light: DIVMTQSPLSLPVTPGEPASISCQASESLVHSNRNTYLHWYLQKPGQSPQLLIYKVSNRFSGVPDRFSGSGSGTDFTLKISRVEAEDVGVYYCSQNTHVPPTFGQGTKVEIERTVAAPSVFIFPPSDEQLKSGTASVVCLLNNFYPREAKVQWKVDNALQSGNSQESVTEQDSKDSTYSLSSTLTLSKADYEKHKVYACEVTHQGLSSPVTKSFNRGEC	53.6 % of GpH7-A5/GpH7-B3/GpL16-k0 (=100)	71.8 % of GpH7-A5/GpH7-B3/GpL16-k0 (=100)	1.34 ratio
GpH7-A5/GpH7-B3 variant D270_13S/GpL16-k0 (antibody, human IgG1, kappa, Heterodimerized anti-glypican-3 IgG1 with the alteration in only one H chain; also called He Ab) heavy 1: not shown heavy 2: not shown light: DIVMTQSPLSLPVTPGEPASISCQASESLVHSNRNTYLHWYLQKPGQSPQLLIYKVSNRFSGVPDRFSGSGSGTDFTLKISRVEAEDVGVYYCSQNTHVPPTFGQGTKVEIERTVAAPSVFIFPPSDEQLKSGTASVVCLLNNFYPREAKVQWKVDNALQSGNSQESVTEQDSKDSTYSLSSTLTLSKADYEKHKVYACEVTHQGLSSPVTKSFNRGEC	44.2 % of GpH7-A5/GpH7-B3/GpL16-k0 (=100)	56.7 % of GpH7-A5/GpH7-B3/GpL16-k0 (=100)	1.28 ratio
GpH7-A5/GpH7-B3 variant D270_03V/GpL16-k0 (antibody, human IgG1, kappa, Heterodimerized anti-glypican-3 IgG1 with the alteration in only one H chain; also called He Ab) heavy 1: not shown heavy 2: not shown light: DIVMTQSPLSLPVTPGEPASISCQASESLVHSNRNTYLHWYLQKPGQSPQLLIYKVSNRFSGVPDRFSGSGSGTDFTLKISRVEAEDVGVYYCSQNTHVPPTFGQGTKVEIERTVAAPSVFIFPPSDEQLKSGTASVVCLLNNFYPREAKVQWKVDNALQSGNSQESVTEQDSKDSTYSLSSTLTLSKADYEKHKVYACEVTHQGLSSPVTKSFNRGEC	39.5 % of GpH7-A5/GpH7-B3/GpL16-k0 (=100)	60.3 % of GpH7-A5/GpH7-B3/GpL16-k0 (=100)	1.52 ratio

Other lines, results leading:

He/Con_2b [1]	He/Con_3a [2]	He_3a/2b [3]	Binder
48 % of GpH7-A5/GpH7-B3/GpL16-k0 (=100)	81.9 % of GpH7-A5/GpH7-B3/GpL16-k0 (=100)	1.7 ratio	GpH7-A5/GpH7-B3 variant D270_19Q/GpL16-k0 (antibody, human IgG1, kappa, Heterodimerized anti-glypican-3 IgG1 with the alteration in only one H chain; also called He Ab) heavy 1: not shown heavy 2: not shown light: DIVMTQSPLSLPVTPGEPASISCQASESLVHSNRNTYLHWYLQKPGQSPQLLIYKVSNRFSGVPDRFSGSGSGTDFTLKISRVEAEDVGVYYCSQNTHVPPTFGQGTKVEIERTVAAPSVFIFPPSDEQLKSGTASVVCLLNNFYPREAKVQWKVDNALQSGNSQESVTEQDSKDSTYSLSSTLTLSKADYEKHKVYACEVTHQGLSSPVTKSFNRGEC
45.1 % of GpH7-A5/GpH7-B3/GpL16-k0 (=100)	56.6 % of GpH7-A5/GpH7-B3/GpL16-k0 (=100)	1.25 ratio	GpH7-A5/GpH7-B3 variant E269_03V/GpL16-k0 (antibody, human IgG1, kappa, Heterodimerized anti-glypican-3 IgG1 with the alteration in only one H chain; also called He Ab) heavy 1: not shown heavy 2: not shown light: DIVMTQSPLSLPVTPGEPASISCQASESLVHSNRNTYLHWYLQKPGQSPQLLIYKVSNRFSGVPDRFSGSGSGTDFTLKISRVEAEDVGVYYCSQNTHVPPTFGQGTKVEIERTVAAPSVFIFPPSDEQLKSGTASVVCLLNNFYPREAKVQWKVDNALQSGNSQESVTEQDSKDSTYSLSSTLTLSKADYEKHKVYACEVTHQGLSSPVTKSFNRGEC
